In US8404647B2, “Peptidylarginine deiminase (PAD) inhibitors” (Chiralix B.V., priority 2008, dated 2013):
Marks after values point to notes of the source that are not given here. One block for each substance: values may come before it. Ends that are not written are not given here.

Tests used:
PAD4 = PAD4 (Homo sapiens, UniProt Q9UM07); experiment: Conversion (R to Cit) of substrate peptides by PAD4, mass spectrometry; assay type: biochemical; settings: for Conversion (%): PAD4; for Conversion: Table 7, PAD4, test system with 3 times less enzyme; for Conversion by PAD4 (%): Table 10
From the text: From previous studies it was known that D-S-Q-F-A-F-R-G-A-S-A-S-D (designated here as L1: SEQ ID NO: 11) is a substrate for PAD2 and PAD 4. To obtain better substrates, and subsequently powerful inhibitors, we intended to identify structural elements that improve substrate properties. A set of 152 individual analog peptides was generated, each differing from L1 by one amino acid at one of the positions −4 to −1 or 1 to 4.
In Table 3 the conversion of each analog (R to Cit conversion) is depicted. Values of the analogs relate to the conversion of the analog compared to the conversion of L1 under standard conditions (100 means a conversion equal to L1, 50 means conversion of 50% of that of L1, 175 means conversion of 175% of that of L1). Numbers above 100 thus relate to amino acid substitutions that improve substrate properties.
Peptides of table 4 are represented by the following sequences SEQ ID NO: 22-31 and 33-46. Control peptide are represented by the following sequences SEQ ID NO: 11 as control L1 and SEQ ID NO: 32 as control L2. Unfortunately, a substantial number of designed peptides were too polar to be analyzed on our LC-MS system (indicated in Table 4 as n.t., not trapped on the column). We therefore also generated and tested these peptides containing two additional N-terminal F-residues to increase hydrophobicity. In this form peptides were trapped on the column and could be analyzed (see Table 5).
Based on the above results we designed 20 peptides containing multiple amino acids that improve substrate properties (see Table 7). The indicated peptides were synthesized and tested in order to identify the best substrate from this group. Here we used a test system with less enzyme (3 times less) compared to the experiments described above.
(§1) Conversion of arginine into citrulline in the substrate peptides by PAD2 or PAD4 using mass spectrometry was performed as follows. A candidate substrate peptide was incubated with a PAD as indicated for several hours at 37° C. The reaction was quenched by the addition with acetic acid. A sample was analysed on a Qtof mass spectrometer (Micromass, UK) and the mass spectrum was compared with that of the same peptide not treated with PAD. Normally, 2^+- and 3^+-ions are detected. The conversion (ΔM=0.98 Da) was calculated on the 2^+- and 3^+-ions individually, and subsequently averaged taking into account the relative peak height of the 2^+- and 3^+-signals (see FIG. 5).

PAD2 = PAD2 (Homo sapiens, UniProt Q9Y2J8); experiment: Conversion (R to Cit) of substrate peptides by PAD2, mass spectrometry; assay type: biochemical; settings: for Conversion by PAD2 (%): Table 10; for Conversion (%): Table 9, PAD2
Protocol: In a similar fashion as for PAD4 we identified improved peptide substrates for PAD2. Again L1 was used as a lead compound. The set of 152 peptides from Table 3 was used and testing was performed as described before.
as §1

[1] = Table 5, peptides with two additional N-terminal F-residues

Sequence of PAD4 (Q9UM07 whole entry): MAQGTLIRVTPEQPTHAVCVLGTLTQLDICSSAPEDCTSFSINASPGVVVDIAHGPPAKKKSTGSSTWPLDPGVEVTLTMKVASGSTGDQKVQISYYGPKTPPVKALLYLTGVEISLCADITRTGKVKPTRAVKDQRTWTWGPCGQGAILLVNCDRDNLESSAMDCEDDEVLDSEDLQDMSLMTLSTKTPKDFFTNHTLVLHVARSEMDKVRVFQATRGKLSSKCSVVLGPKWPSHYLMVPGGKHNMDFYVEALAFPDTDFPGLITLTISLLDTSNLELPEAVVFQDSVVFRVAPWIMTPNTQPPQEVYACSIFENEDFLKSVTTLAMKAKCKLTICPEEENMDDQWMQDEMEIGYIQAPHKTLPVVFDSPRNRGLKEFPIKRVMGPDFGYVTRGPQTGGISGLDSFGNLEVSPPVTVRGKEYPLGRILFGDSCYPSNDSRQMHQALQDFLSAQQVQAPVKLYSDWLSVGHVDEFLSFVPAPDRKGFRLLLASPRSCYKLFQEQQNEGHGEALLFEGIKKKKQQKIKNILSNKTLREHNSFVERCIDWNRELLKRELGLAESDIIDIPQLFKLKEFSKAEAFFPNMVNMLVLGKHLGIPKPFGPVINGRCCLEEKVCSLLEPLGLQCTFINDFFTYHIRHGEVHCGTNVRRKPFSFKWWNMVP
Sequence of PAD2 (Q9Y2J8 whole entry): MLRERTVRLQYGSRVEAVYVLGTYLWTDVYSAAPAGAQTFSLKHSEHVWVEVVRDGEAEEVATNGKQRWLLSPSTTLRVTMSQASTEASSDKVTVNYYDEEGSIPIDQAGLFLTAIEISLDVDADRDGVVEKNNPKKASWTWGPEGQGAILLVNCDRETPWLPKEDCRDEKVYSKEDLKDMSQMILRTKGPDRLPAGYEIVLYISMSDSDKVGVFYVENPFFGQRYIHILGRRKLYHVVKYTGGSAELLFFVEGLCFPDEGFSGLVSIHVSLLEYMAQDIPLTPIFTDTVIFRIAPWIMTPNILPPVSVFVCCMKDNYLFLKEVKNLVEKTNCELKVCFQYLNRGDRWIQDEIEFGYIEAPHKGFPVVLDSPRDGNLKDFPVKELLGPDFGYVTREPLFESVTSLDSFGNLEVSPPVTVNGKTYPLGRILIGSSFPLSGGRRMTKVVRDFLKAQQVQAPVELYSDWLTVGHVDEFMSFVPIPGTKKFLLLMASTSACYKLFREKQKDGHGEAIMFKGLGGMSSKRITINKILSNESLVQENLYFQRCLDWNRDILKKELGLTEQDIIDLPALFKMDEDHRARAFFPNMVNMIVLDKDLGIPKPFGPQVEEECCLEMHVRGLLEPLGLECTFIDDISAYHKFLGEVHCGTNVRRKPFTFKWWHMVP

Substance: D-S-H-H-W-D-R-E-W-F-W-S-D (DSHHWDREWFWSD; not fully specified (C-terminus); printed as D-S-H-H-W-D-R-E-W-F-W-S-D) [Peptide 0608-40]
Conversion (%) (PAD4; Table 4, 13-mer peptides): 100%

Substance: D-S-H-K-F-D-R-D-F-I-Y-S-D (DSHKFDRDFIYSD; not fully specified (C-terminus); printed as D-S-H-K-F-D-R-D-F-I-Y-S-D) [Peptide 0608-43]
Conversion (%) (PAD4; Table 4, 13-mer peptides): 100%
Conversion by PAD4 (%) (PAD4): 79%
Conversion by PAD2 (%) (PAD2): 90 ** %

Substance: D-S-K-H-K-D-R-E-Y-V-F-S-D (DSKHKDREYVFSD; not fully specified (C-terminus); printed as D-S-K-H-K-D-R-E-Y-V-F-S-D) [Peptide 0608-22]
Conversion (%) (PAD4; Table 4, 13-mer peptides): 90%

Substance: F-F-D-S-H-K-H-S-R-E-W-L-W-S-D (FFDSHKHSREWLWSD) [Peptide 0612-38]
Conversion (%) (PAD4; [1]): 100%
Conversion by PAD4 (%) (PAD4): 72%
Conversion by PAD2 (%) (PAD2): 96%

Substance: F-F-D-S-H-K-W-H-R-D-F-F-Y-S-D (FFDSHKWHRDFFYSD) [Peptide 0612-37]
Conversion (%) (PAD4; [1]): 100%
Conversion by PAD4 (%) (PAD4): 88%
Conversion by PAD2 (%) (PAD2): 96 ** %

Substance: F-F-D-S-H-H-K-D-R-D-H-V-E-S-D (FFDSHHKDRDHVESD) [Peptide 0612-39]
Conversion (%) (PAD4; [1]): 100%

Substance: D-S-H-H-L-S-R-D-F-M-Y-S-D (DSHHLSRDFMYSD; not fully specified (C-terminus); printed as D-S-H-H-L-S-R-D-F-M-Y-S-D) [Peptide 0608-39]
Conversion (%) (PAD4; Table 4, 13-mer peptides): 95%

Substance: D-S-H-K-L-H-R-E-W-M-W-S-D (DSHKLHREWMWSD; not fully specified (C-terminus); printed as D-S-H-K-L-H-R-E-W-M-W-S-D) [Peptide 0608-44]
Conversion (%) (PAD4; Table 4, 13-mer peptides): 95%

Substance: D-S-H-K-L-D-R-E-Y-M-F-S-D (DSHKLDREYMFSD; not fully specified (C-terminus); printed as D-S-H-K-L-D-R-E-Y-M-F-S-D) [Peptide 0608-34]
Conversion (%) (PAD4; Table 4, 13-mer peptides): 90%

Substance: F-F-D-S-K-H-F-H-R-D-F-I-Y-S-D (FFDSKHFHRDFIYSD) [Peptide 0612-25]
Conversion (%) (PAD4; [1]): 100%

Substance: F-F-D-S-H-K-H-H-R-D-H-L-E-S-D (FFDSHKHHRDHLESD) [Peptide 0612-43]
Conversion (%) (PAD4; [1]): 100%

Substance: F-F-D-S-K-H-H-H-R-E-Y-L-F-S-D (FFDSKHHHREYLFSD) [Peptide 0612-28]
Conversion (%) (PAD4; [1]): 100%

Substance: D-S-H-H-F-H-R-E-Y-I-F-S-D (DSHHFHREYIFSD; not fully specified (C-terminus); printed as D-S-H-H-F-H-R-E-Y-I-F-S-D) [Peptide 0608-38]
Conversion (%) (PAD4; Table 4, 13-mer peptides): 90%

Substance: F-F-D-S-H-H-L-S-R-D-F-M-Y-S-D (FFDSHHLSRDFMYSD) [Peptide 0612-41]
Conversion (%) (PAD4; [1]): 98%

Substance: F-F-D-S-K-H-K-D-R-E-Y-V-F-S-D (FFDSKHKDREYVFSD) [Peptide 0612-24]
Conversion (%) (PAD4; [1]): 100%

Substance: F-F-D-S-K-K-H-D-R-D-F-L-Y-S-D (FFDSKKHDRDFLYSD) [Peptide 0612-33]
Conversion (%) (PAD4; [1]): 100%

Substance: F-F-D-S-K-K-L-H-R-D-H-M-E-S-D (FFDSKKLHRDHMESD) [Peptide 0612-31]
Conversion (%) (PAD4; [1]): 88%

Substance: F-F-D-S-K-H-H-S-R-D-H-L-E-S-D (FFDSKHHSRDHLESD) [Peptide 0612-23]
Conversion (%) (PAD4; [1]): 100%

Substance: F-F-D-S-H-H-W-D-R-E-W-F-W-S-D (FFDSHHWDREWFWSD) [Peptide 0612-42]
Conversion (%) (PAD4; [1]): 100%

Substance: F-F-D-S-K-H-W-D-R-D-H-F-E-S-D (FFDSKHWDRDHFESD) [Peptide 0612-27]
Conversion (%) (PAD4; [1]): 100%

Substance: F-F-D-S-H-K-L-D-R-E-Y-M-F-S-D (FFDSHKLDREYMFSD) [Peptide 0612-36]
Conversion (%) (PAD4; [1]): 100%

Substance: D-S-K-K-W-S-R-E-Y-F-F-S-D (DSKKWSREYFFSD; not fully specified (C-terminus); printed as D-S-K-K-W-S-R-E-Y-F-F-S-D) [Peptide 0608-30]
Conversion (%) (PAD4; Table 4, 13-mer peptides): 90%

Substance: F-F-D-S-H-K-W-S-R-D-H-F-E-S-D (FFDSHKWSRDHFESD) [Peptide 0612-47]
Conversion (%) (PAD4; [1]): 100%

More lines, now with the values ahead:

Conversion (PAD4): 35
Substance: D-S-K-K-H-D-R-D-K-L-F-S-D (DSKKHDRDKLFSD; not fully specified (C-terminus); printed as D-S-K-K-H-D-R-D-K-L-F-S-D) [Peptide 0708-24]

Conversion (PAD4): 38
Substance: D-S-N-K-H-H-R-D-H-L-Y-S-D (DSNKHHRDHLYSD) [Peptide 0708-17]

Conversion (%) (PAD2): 35%
Substance: D-S-Q-F-A-H-R-N-A-S-A-S-D (DSQFAHRNASASD) [Peptide 0735-28]

Conversion (PAD4): 18
Substance: D-S-W-W-H-K-R-D-K-L-Y-S-D (DSWWHKRDKLYSD) [Peptide 0708-23]

Conversion (PAD4): 56
Conversion by PAD4 (%) (PAD4): 64%
Conversion by PAD2 (%) (PAD2): 97%
Substance: D-S-K-K-F-H-R-D-F-L-Y-S-D (DSKKFHRDFLYSD; not fully specified (C-terminus); printed as D-S-K-K-F-H-R-D-F-L-Y-S-D) [Peptide 0708-25]

Conversion by PAD4 (%) (PAD4): <20%
Conversion (%) (PAD2): 91%
Conversion by PAD2 (%) (PAD2): 91%
Substance: D-S-K-F-K-F-R-Y-A-Y-A-S-D (DSKFKFRYAYASD; not fully specified (C-terminus); printed as D-S-K-F-K-F-R-Y-A-Y-A-S-D) [Peptide 0735-34]

Conversion (%) (PAD2): 65%
Substance: D-S-Q-F-A-F-R-G-A-F-W-S-D (DSQFAFRGAFWSD) [Peptide 0735-30]

Conversion (%) (PAD2): 74%
Substance: D-S-Q-F-A-Y-R-N-A-K-A-S-D (DSQFAYRNAKASD) [Peptide 0735-36]

Conversion (%) (PAD2): 70%
Substance: D-S-W-K-A-F-R-G-A-S-A-S-D (DSWKAFRGASASD) [Peptide 0735-29]

Conversion (%) (PAD2): 85%
Substance: D-S-Q-F-A-F-R-H-F-S-A-S-D (DSQFAFRHFSASD) [Peptide 0735-32]

Conversion (PAD4): 70
Substance: D-S-K-W-F-D-R-D-H-L-Y-S-D (DSKWFDRDHLYSD; not fully specified (C-terminus); printed as D-S-K-W-F-D-R-D-H-L-Y-S-D) [Peptide 0708-16]

Conversion (%) (PAD2): 59%
Substance: D-S-M-C-A-F-R-G-A-K-K-S-D (DSMCAFRGAKKSD) [Peptide 0735-31]

Conversion (PAD4): 51
Substance: D-S-K-K-F-D-R-D-F-L-F-S-D (DSKKFDRDFLFSD; not fully specified (C-terminus); printed as D-S-K-K-F-D-R-D-F-L-F-S-D) [Peptide 0708-27]

Conversion (PAD4): 53
Substance: D-S-K-K-H-D-R-D-H-L-F-S-D (DSKKHDRDHLFSD; not fully specified (C-terminus); printed as D-S-K-K-H-D-R-D-H-L-F-S-D) [Peptide 0708-21]

Conversion (%) (PAD2): 82%
Substance: D-S-Q-W-A-F-R-G-A-F-A-S-D (DSQWAFRGAFASD) [Peptide 0735-33]

Conversion (%) (PAD2): 73%
Substance: D-S-Q-C-L-F-R-G-A-F-A-S-D (DSQCLFRGAFASD) [Peptide 0735-40]

Conversion (%) (PAD2): 80%
Substance: D-S-Q-F-K-F-R-G-A-F-A-S-D (DSQFKFRGAFASD) [Peptide 0735-39]

Conversion (%) (PAD2): 82%
Substance: D-S-Q-W-A-F-R-N-A-F-A-S-D (DSQWAFRNAFASD) [Peptide 0735-38]

Conversion (PAD4): 53
Substance: D-S-H-K-F-D-R-D-F-L-Y-S-D (DSHKFDRDFLYSD; not fully specified (C-terminus); printed as D-S-H-K-F-D-R-D-F-L-Y-S-D) [Peptide 0708-28]

Conversion (PAD4): 45
Substance: D-S-N-W-H-H-R-D-H-L-Y-S-D (DSNWHHRDHLYSD) [Peptide 0708-19]
